This assay addresses membrane-derived caspases. In words: cell-based or functional assay.

* marks the point of attachment. AMC = Cc1cc(=O)oc2cc(N*)ccc12

On to Ac-DEVD-{AMC} [DEVD-amc (Acetyl-Asp-Glu-Val-Asp-aminomethylcoumarin)], for which the Km for hydrolysis of DEVD-amc was 10 µM.
